{
  "source": "patent US20230365647A1",
  "about": "(published 2023)",
  "binders": {"B1": {"name": "Mannose receptor C type 1 on human monocyte-derived dendritic cells (receptor)", "chain": "LLDTRQFLIYNEDHKRCVDAVSPSAVQTAACNQDAESQKFRWVSESQIMSVAFKLCLGVPSKTDWVAITLYACDSKSEFQKWECKNDTLLGIKGEDLFFNYGNRQEKNIMLYKGSGLWSRWKIYGTTDNLCSRGYEAMYTLLGNANGATCAFPFKFENKWYADCTSAGRSDGWLWCGTTTDYDTDKLFGYCPLKFEGSESLWNKDPLTSVSYQINSKSALTWHQARKSCQQQNAELLSITEIHEQTYLTGLTSSLTSGLWIGLNSLSFNSGWQWSDRSPFRYLNWLPGSPSAEPGKSCVSLNPGKNAKWENLECVQKLGYICKKGNTTLNSFVIPSESDVPTHCPSQWWPYAGHCYKIHRDEKKIQRDALTTCRKEGGDLTSIHTIEELDFIISQLGYEPNDELWIGLNDIKIQMYFEWSDGTPVTFTKWLRGEPSHENNRQEDCVVMKGKDGYWADRGCEWPLGYICKMKSRSQGPEIVEVEKGCRKGWKKHHFYCYMIGHTLSTFAEANQTCNNENAYLTTIEDRYEQAFLTSFVGLRPEKYFWTGLSDIQTKGTFQWTIEEEVRFTHWNSDMPGRKPGCVAMRTGIAGGLWDVLKCDEKAKFVCKHWAEGVTHPPKPTTTPEPKCPEDWGASSRTSLCFKLYAKGKHEKKTWFESRDFCRALGGDLASINNKEEQQTIWRLITASGSYHKLFWLGLTYGSPSEGFTWSDGSPVSYENWAYGEPNNYQNVEYCGELKGDPTMSWNDINCEHLNNWICQIQKGQTPKPEPTPAPQDNPPVTEDGWVIYKDYQYYFSKEKETMDNARAFCKRNFGDLVSIQSESEKKFLWKYVNRNDAQSAYFIGLLISLDKKFAWMDGSKVDYVSWATGEPNFANEDENCVTMYSNSGFWNDINCGYPNAFICQRHNSSINATTVMPTMPSVPSGCKEGWNFYSNKCFKIFGFMEEERKNWQEARKACIGFGGNLVSIQNEKEQAFLTYHMKDSTFSAWTGLNDVNSEHTFLWTDGRGVHYTNWGKGYPGGRRSSLSYEDADCVVIIGGASNEAGKWMDDTCDSKRGYICQTRSDPSLTNPPATIQTDGFVKYGKSSYSLMRQKFQWHEAETYCKLHNSLIASILDPYSNAFAWLQMETSNERVWIALNSNLTDNQYTWTDKWRVRYTNWAADEPKLKSACVYLDLDGYWKTAHCNESFYFLCKRSDEIPATEPPQLPGRCPESDHTAWIPFHGHCYYIESSYTRNWGQASLECLRMGSSLVSIESAAESSFLSYRVEPLKSKTNFWIGLFRNVEGTWLWINNSPVSFVNWNTGDPSGERNDCVALHASSGFWSNIHCSSYKGYICKRPKIIDAKPTHELLTTKADTRKMDPSKPSSNVAGVVIIVILLILTGAGLAAYFFYKKRRVHLPQEGAFENTLYFNSQSSPGTSDMKDLVGNIEQNEHSVI", "notes": "also called MRC-1"}},
  "biological_target": "T1, PLY (W433F) toxoid (Streptococcus pneumoniae, UniProt P0C2J9 2-471)",
  "T1 construct": "also called Pdb PLY (W433F); Pdb (W433F)",
  "assay": "immunofluorescence co-localization in human DCs",
  "data": [
    {"binder": "B1", "values": [
      {"measurement": "binding result", "value": "no binding (tested: 0.2 µg/ml)"}
    ]}
  ]
}
